± gives the uncertainty stated by the source.
B1: Tripartite motif-containing protein 49C, residues 87 to 133; numbered along this chain, P0CI26 (parent)
chain: SSEEQMCGTHRETKKIFCEVDRSLLCLLCSSSQEHRYHRHRPIEWAA

Variants of: B1
Test: abundance fitness (aPCA) (normalised: wild type 0, dead -1); higher = more abundant; growth selection in yeast, the domain comes from the species named
Details: Homo sapiens

Variant | abundance fitness
SAEEQMCGTHRETKKIFCEVDRSLLCLLCSSSQEHRYHRHRPIEWAA | -0.21 ± 0.1
SDEEQMCGTHRETKKIFCEVDRSLLCLLCSSSQEHRYHRHRPIEWAA | -0.354 ± 0.21
SEEEQMCGTHRETKKIFCEVDRSLLCLLCSSSQEHRYHRHRPIEWAA | -0.222 ± 0.14
SFEEQMCGTHRETKKIFCEVDRSLLCLLCSSSQEHRYHRHRPIEWAA | 0.205 ± 0.14
SIEEQMCGTHRETKKIFCEVDRSLLCLLCSSSQEHRYHRHRPIEWAA | -0.017 ± 0.14
SKEEQMCGTHRETKKIFCEVDRSLLCLLCSSSQEHRYHRHRPIEWAA | -0.114 ± 0.14
SLEEQMCGTHRETKKIFCEVDRSLLCLLCSSSQEHRYHRHRPIEWAA | -0.204 ± 0.12
SNEEQMCGTHRETKKIFCEVDRSLLCLLCSSSQEHRYHRHRPIEWAA | -0.538 ± 0.17
SPEEQMCGTHRETKKIFCEVDRSLLCLLCSSSQEHRYHRHRPIEWAA | -0.042 ± 0.22
SREEQMCGTHRETKKIFCEVDRSLLCLLCSSSQEHRYHRHRPIEWAA | -0.268 ± 0.096
SVEEQMCGTHRETKKIFCEVDRSLLCLLCSSSQEHRYHRHRPIEWAA | -0.29 ± 0.11
SYEEQMCGTHRETKKIFCEVDRSLLCLLCSSSQEHRYHRHRPIEWAA | -0.647 ± 0.3
SSAEQMCGTHRETKKIFCEVDRSLLCLLCSSSQEHRYHRHRPIEWAA | 0.051 ± 0.1
SSCEQMCGTHRETKKIFCEVDRSLLCLLCSSSQEHRYHRHRPIEWAA | 0.068 ± 0.18
SSDEQMCGTHRETKKIFCEVDRSLLCLLCSSSQEHRYHRHRPIEWAA | 0.084 ± 0.17
SSFEQMCGTHRETKKIFCEVDRSLLCLLCSSSQEHRYHRHRPIEWAA | -0.346 ± 0.18
SSGEQMCGTHRETKKIFCEVDRSLLCLLCSSSQEHRYHRHRPIEWAA | -0.147 ± 0.091
SSHEQMCGTHRETKKIFCEVDRSLLCLLCSSSQEHRYHRHRPIEWAA | -0.246 ± 0.26
SSIEQMCGTHRETKKIFCEVDRSLLCLLCSSSQEHRYHRHRPIEWAA | -0.492 ± 0.22
SSKEQMCGTHRETKKIFCEVDRSLLCLLCSSSQEHRYHRHRPIEWAA | -0.295 ± 0.22
SSLEQMCGTHRETKKIFCEVDRSLLCLLCSSSQEHRYHRHRPIEWAA | -0.176 ± 0.1
SSMEQMCGTHRETKKIFCEVDRSLLCLLCSSSQEHRYHRHRPIEWAA | -0.275 ± 0.12

Variant | abundance fitness
SSPEQMCGTHRETKKIFCEVDRSLLCLLCSSSQEHRYHRHRPIEWAA | -0.172 ± 0.14
SSREQMCGTHRETKKIFCEVDRSLLCLLCSSSQEHRYHRHRPIEWAA | -0.213 ± 0.081
SSSEQMCGTHRETKKIFCEVDRSLLCLLCSSSQEHRYHRHRPIEWAA | -0.15 ± 0.098
SSTEQMCGTHRETKKIFCEVDRSLLCLLCSSSQEHRYHRHRPIEWAA | -0.487 ± 0.18
SSVEQMCGTHRETKKIFCEVDRSLLCLLCSSSQEHRYHRHRPIEWAA | -0.292 ± 0.1
SSWEQMCGTHRETKKIFCEVDRSLLCLLCSSSQEHRYHRHRPIEWAA | -0.156 ± 0.12
SSYEQMCGTHRETKKIFCEVDRSLLCLLCSSSQEHRYHRHRPIEWAA | -0.592 ± 0.25
SSEAQMCGTHRETKKIFCEVDRSLLCLLCSSSQEHRYHRHRPIEWAA | -0.224 ± 0.13
SSECQMCGTHRETKKIFCEVDRSLLCLLCSSSQEHRYHRHRPIEWAA | -0.591 ± 0.21
SSEDQMCGTHRETKKIFCEVDRSLLCLLCSSSQEHRYHRHRPIEWAA | -0.035 ± 0.16
SSEFQMCGTHRETKKIFCEVDRSLLCLLCSSSQEHRYHRHRPIEWAA | -0.59 ± 0.22
SSEGQMCGTHRETKKIFCEVDRSLLCLLCSSSQEHRYHRHRPIEWAA | -0.68 ± 0.091
SSEHQMCGTHRETKKIFCEVDRSLLCLLCSSSQEHRYHRHRPIEWAA | -0.351 ± 0.18
SSEIQMCGTHRETKKIFCEVDRSLLCLLCSSSQEHRYHRHRPIEWAA | -0.142 ± 0.15
SSEKQMCGTHRETKKIFCEVDRSLLCLLCSSSQEHRYHRHRPIEWAA | -0.502 ± 0.19
SSELQMCGTHRETKKIFCEVDRSLLCLLCSSSQEHRYHRHRPIEWAA | -0.278 ± 0.11
SSEMQMCGTHRETKKIFCEVDRSLLCLLCSSSQEHRYHRHRPIEWAA | 0.015 ± 0.15
SSEPQMCGTHRETKKIFCEVDRSLLCLLCSSSQEHRYHRHRPIEWAA | -0.196 ± 0.12
SSEQQMCGTHRETKKIFCEVDRSLLCLLCSSSQEHRYHRHRPIEWAA | -0.726 ± 0.23
SSERQMCGTHRETKKIFCEVDRSLLCLLCSSSQEHRYHRHRPIEWAA | -0.252 ± 0.081
SSESQMCGTHRETKKIFCEVDRSLLCLLCSSSQEHRYHRHRPIEWAA | -0.244 ± 0.11
SSETQMCGTHRETKKIFCEVDRSLLCLLCSSSQEHRYHRHRPIEWAA | 0.02 ± 0.14

Variant | abundance fitness
SSEVQMCGTHRETKKIFCEVDRSLLCLLCSSSQEHRYHRHRPIEWAA | -0.093 ± 0.097
SSEWQMCGTHRETKKIFCEVDRSLLCLLCSSSQEHRYHRHRPIEWAA | -0.577 ± 0.11
SSEYQMCGTHRETKKIFCEVDRSLLCLLCSSSQEHRYHRHRPIEWAA | -0.35 ± 0.21
SSEEAMCGTHRETKKIFCEVDRSLLCLLCSSSQEHRYHRHRPIEWAA | -0.358 ± 0.1
SSEECMCGTHRETKKIFCEVDRSLLCLLCSSSQEHRYHRHRPIEWAA | -0.643 ± 0.21
SSEEDMCGTHRETKKIFCEVDRSLLCLLCSSSQEHRYHRHRPIEWAA | 0.159 ± 0.13
SSEEEMCGTHRETKKIFCEVDRSLLCLLCSSSQEHRYHRHRPIEWAA | -0.609 ± 0.13
SSEEFMCGTHRETKKIFCEVDRSLLCLLCSSSQEHRYHRHRPIEWAA | -0.424 ± 0.12
SSEEGMCGTHRETKKIFCEVDRSLLCLLCSSSQEHRYHRHRPIEWAA | -0.244 ± 0.081
SSEEHMCGTHRETKKIFCEVDRSLLCLLCSSSQEHRYHRHRPIEWAA | -0.315 ± 0.18
SSEEIMCGTHRETKKIFCEVDRSLLCLLCSSSQEHRYHRHRPIEWAA | -0.291 ± 0.27
SSEEKMCGTHRETKKIFCEVDRSLLCLLCSSSQEHRYHRHRPIEWAA | 0.165 ± 0.16
SSEELMCGTHRETKKIFCEVDRSLLCLLCSSSQEHRYHRHRPIEWAA | -0.044 ± 0.094
SSEEMMCGTHRETKKIFCEVDRSLLCLLCSSSQEHRYHRHRPIEWAA | 0.054 ± 0.12
SSEENMCGTHRETKKIFCEVDRSLLCLLCSSSQEHRYHRHRPIEWAA | -0.337 ± 0.16
SSEEPMCGTHRETKKIFCEVDRSLLCLLCSSSQEHRYHRHRPIEWAA | -0.251 ± 0.11
SSEERMCGTHRETKKIFCEVDRSLLCLLCSSSQEHRYHRHRPIEWAA | -0.097 ± 0.082
SSEESMCGTHRETKKIFCEVDRSLLCLLCSSSQEHRYHRHRPIEWAA | 0.114 ± 0.098
SSEETMCGTHRETKKIFCEVDRSLLCLLCSSSQEHRYHRHRPIEWAA | -0.345 ± 0.12
SSEEVMCGTHRETKKIFCEVDRSLLCLLCSSSQEHRYHRHRPIEWAA | -0.009 ± 0.096
SSEEWMCGTHRETKKIFCEVDRSLLCLLCSSSQEHRYHRHRPIEWAA | -0.465 ± 0.12
SSEEYMCGTHRETKKIFCEVDRSLLCLLCSSSQEHRYHRHRPIEWAA | -0.002 ± 0.18

Variant | abundance fitness
SSEEQACGTHRETKKIFCEVDRSLLCLLCSSSQEHRYHRHRPIEWAA | -0.575 ± 0.11
SSEEQCCGTHRETKKIFCEVDRSLLCLLCSSSQEHRYHRHRPIEWAA | -0.568 ± 0.17
SSEEQDCGTHRETKKIFCEVDRSLLCLLCSSSQEHRYHRHRPIEWAA | -0.875 ± 0.24
SSEEQFCGTHRETKKIFCEVDRSLLCLLCSSSQEHRYHRHRPIEWAA | -0.769 ± 0.19
SSEEQGCGTHRETKKIFCEVDRSLLCLLCSSSQEHRYHRHRPIEWAA | -0.553 ± 0.099
SSEEQHCGTHRETKKIFCEVDRSLLCLLCSSSQEHRYHRHRPIEWAA | -0.215 ± 0.19
SSEEQICGTHRETKKIFCEVDRSLLCLLCSSSQEHRYHRHRPIEWAA | -0.855 ± 0.16
SSEEQKCGTHRETKKIFCEVDRSLLCLLCSSSQEHRYHRHRPIEWAA | -0.581 ± 0.14
SSEEQLCGTHRETKKIFCEVDRSLLCLLCSSSQEHRYHRHRPIEWAA | -0.13 ± 0.1
SSEEQNCGTHRETKKIFCEVDRSLLCLLCSSSQEHRYHRHRPIEWAA | -0.958 ± 0.3
SSEEQQCGTHRETKKIFCEVDRSLLCLLCSSSQEHRYHRHRPIEWAA | -0.273 ± 0.11
SSEEQRCGTHRETKKIFCEVDRSLLCLLCSSSQEHRYHRHRPIEWAA | -0.338 ± 0.092
SSEEQSCGTHRETKKIFCEVDRSLLCLLCSSSQEHRYHRHRPIEWAA | -0.57 ± 0.12
SSEEQTCGTHRETKKIFCEVDRSLLCLLCSSSQEHRYHRHRPIEWAA | -0.414 ± 0.12
SSEEQVCGTHRETKKIFCEVDRSLLCLLCSSSQEHRYHRHRPIEWAA | -0.21 ± 0.089
SSEEQWCGTHRETKKIFCEVDRSLLCLLCSSSQEHRYHRHRPIEWAA | -0.651 ± 0.15
SSEEQYCGTHRETKKIFCEVDRSLLCLLCSSSQEHRYHRHRPIEWAA | -0.344 ± 0.16
SSEEQMAGTHRETKKIFCEVDRSLLCLLCSSSQEHRYHRHRPIEWAA | -0.935 ± 0.17
SSEEQMDGTHRETKKIFCEVDRSLLCLLCSSSQEHRYHRHRPIEWAA | -0.589 ± 0.17
SSEEQMFGTHRETKKIFCEVDRSLLCLLCSSSQEHRYHRHRPIEWAA | -0.957 ± 0.12
SSEEQMHGTHRETKKIFCEVDRSLLCLLCSSSQEHRYHRHRPIEWAA | -0.429 ± 0.11
SSEEQMIGTHRETKKIFCEVDRSLLCLLCSSSQEHRYHRHRPIEWAA | -0.797 ± 0.11

Variant | abundance fitness
SSEEQMKGTHRETKKIFCEVDRSLLCLLCSSSQEHRYHRHRPIEWAA | -1.08 ± 0.27
SSEEQMMGTHRETKKIFCEVDRSLLCLLCSSSQEHRYHRHRPIEWAA | -0.718 ± 0.27
SSEEQMPGTHRETKKIFCEVDRSLLCLLCSSSQEHRYHRHRPIEWAA | -0.598 ± 0.1
SSEEQMQGTHRETKKIFCEVDRSLLCLLCSSSQEHRYHRHRPIEWAA | -0.832 ± 0.18
SSEEQMRGTHRETKKIFCEVDRSLLCLLCSSSQEHRYHRHRPIEWAA | -0.513 ± 0.12
SSEEQMSGTHRETKKIFCEVDRSLLCLLCSSSQEHRYHRHRPIEWAA | -0.636 ± 0.091
SSEEQMTGTHRETKKIFCEVDRSLLCLLCSSSQEHRYHRHRPIEWAA | -0.861 ± 0.11
SSEEQMVGTHRETKKIFCEVDRSLLCLLCSSSQEHRYHRHRPIEWAA | -0.722 ± 0.15
SSEEQMWGTHRETKKIFCEVDRSLLCLLCSSSQEHRYHRHRPIEWAA | -0.499 ± 0.27
SSEEQMYGTHRETKKIFCEVDRSLLCLLCSSSQEHRYHRHRPIEWAA | -0.788 ± 0.11
SSEEQMCATHRETKKIFCEVDRSLLCLLCSSSQEHRYHRHRPIEWAA | -0.005 ± 0.085
SSEEQMCCTHRETKKIFCEVDRSLLCLLCSSSQEHRYHRHRPIEWAA | -0.017 ± 0.1
SSEEQMCDTHRETKKIFCEVDRSLLCLLCSSSQEHRYHRHRPIEWAA | -0.022 ± 0.11
SSEEQMCFTHRETKKIFCEVDRSLLCLLCSSSQEHRYHRHRPIEWAA | 0.229 ± 0.13
SSEEQMCHTHRETKKIFCEVDRSLLCLLCSSSQEHRYHRHRPIEWAA | -0.468 ± 0.16
SSEEQMCKTHRETKKIFCEVDRSLLCLLCSSSQEHRYHRHRPIEWAA | -0.02 ± 0.11
SSEEQMCLTHRETKKIFCEVDRSLLCLLCSSSQEHRYHRHRPIEWAA | -0.009 ± 0.086
SSEEQMCMTHRETKKIFCEVDRSLLCLLCSSSQEHRYHRHRPIEWAA | 0.131 ± 0.096
SSEEQMCNTHRETKKIFCEVDRSLLCLLCSSSQEHRYHRHRPIEWAA | -0.159 ± 0.15
SSEEQMCQTHRETKKIFCEVDRSLLCLLCSSSQEHRYHRHRPIEWAA | -0.104 ± 0.14
SSEEQMCSTHRETKKIFCEVDRSLLCLLCSSSQEHRYHRHRPIEWAA | -0.086 ± 0.089
SSEEQMCTTHRETKKIFCEVDRSLLCLLCSSSQEHRYHRHRPIEWAA | -0.042 ± 0.11
